T1: CEACAM1 (Sino Biological) (human, UniProt P13688 35-428, limits assumed)
T1 construct: may be the same as CEACAM1-HIS; also called hCEACAM1; biotinylated soluble CEACAM1
T1 sequence: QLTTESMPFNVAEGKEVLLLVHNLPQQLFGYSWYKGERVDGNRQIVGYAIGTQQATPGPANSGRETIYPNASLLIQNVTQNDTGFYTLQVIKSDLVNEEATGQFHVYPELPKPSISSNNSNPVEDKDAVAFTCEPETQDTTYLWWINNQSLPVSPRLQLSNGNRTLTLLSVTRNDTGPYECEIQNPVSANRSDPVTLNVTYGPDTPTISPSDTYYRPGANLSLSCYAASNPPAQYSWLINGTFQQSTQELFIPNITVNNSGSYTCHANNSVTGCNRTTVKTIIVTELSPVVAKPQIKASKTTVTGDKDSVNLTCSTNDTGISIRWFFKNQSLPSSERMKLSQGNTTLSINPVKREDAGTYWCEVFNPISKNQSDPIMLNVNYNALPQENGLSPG

B1: He14/L17 (antibody, IgG4, V domains shown)
VH: EVQLLESGGGLVQPGGSLRLSCAASGFSFSDYYLYWVRQAPGKGLEWVATISVGGGQTSYADSVKGRFTISRDNSKNTLYLQMNSLRAEDTAMYYCTRGLYYGPSWVAYWGQGTLVTVSS
VL: DIVMTQSPDSLAVSLGERATINCKSSQSLLNSANQKNYLAWYQQKPGQPPKLLIYFASTRESGVPDRFSGSGSGTDFTLTISSLQAEDVAVYYCQSHYPYPYTFGGGTKVEIK
notes: IgG4 S241P, kappa
B2: He17/Parent VL (antibody, IgG4, V domains shown)
VH: EVQLLESGGGLVQPGGSLRLSCAASGFSFSDYYLYWVRQAPGKGLEWVATISVGGGQTSYADSVKGRFTISRDNSKNTLYLQMNSLRAEDTAMYYCTRARTYGPAWFAYWGQGTLVTVSS
VL: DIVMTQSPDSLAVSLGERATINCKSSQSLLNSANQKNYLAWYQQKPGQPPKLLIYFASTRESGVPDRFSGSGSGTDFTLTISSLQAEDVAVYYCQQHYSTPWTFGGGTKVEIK
notes: IgG4 S241P, kappa
B3: He17/L4 #1 (antibody, IgG4, V domains shown)
VH: EVQLLESGGGLVQPGGSLRLSCAASGFSFSDYYLYWVRQAPGKGLEWVATISVGGGQTSYADSVKGRFTISRDNSKNTLYLQMNSLRAEDTAMYYCTRARTYGPAWFAYWGQGTLVTVSS
VL: DIVMTQSPDSLAVSLGERATINCKSSQSLLNSANQKNYLAWYQQKPGQPPKLLIYFASTRESGVPDRFSGSGSGTDFTLTISSLQAEDVAVYYCQSHFPYYYTFGGGTKVEIK
notes: IgG4 S241P, kappa
B4: He17/L4#2 (antibody, IgG4, V domains shown)
VH: EVQLLESGGGLVQPGGSLRLSCAASGFSFSDYYLYWVRQAPGKGLEWVATISVGGGQTSYADSVKGRFTISRDNSKNTLYLQMNSLRAEDTAMYYCTRARTYGPAWFAYWGQGTLVTVSS
VL: DIVMTQSPDSLAVSLGERATINCKSSQSLLNSANQKNYLAWYQQKPGQPPKLLIYFASTRESGVPDRFSGSGSGTDFTLTISSLQAEDVAVYYCQSHYPYPYTFGGGTKVEIK
notes: IgG4 S241P, kappa
B5: He14/L18 (antibody, IgG4, V domains shown)
VH: EVQLLESGGGLVQPGGSLRLSCAASGFSFSDYYLYWVRQAPGKGLEWVATISVGGGQTSYADSVKGRFTISRDNSKNTLYLQMNSLRAEDTAMYYCTRGLYYGPSWVAYWGQGTLVTVSS
VL: DIVMTQSPDSLAVSLGERATINCKSSQSLLNSANQKNYLAWYQQKPGQPPKLLIYFASTRESGVPDRFSGSGSGTDFTLTISSLQAEDVAVYYCQSHFPYPFTFGGGTKVEIK
notes: IgG4 S241P, kappa
B6: He17/L17 (antibody, IgG4, V domains shown)
VH: EVQLLESGGGLVQPGGSLRLSCAASGFSFSDYYLYWVRQAPGKGLEWVATISVGGGQTSYADSVKGRFTISRDNSKNTLYLQMNSLRAEDTAMYYCTRARTYGPAWFAYWGQGTLVTVSS
VL: DIVMTQSPDSLAVSLGERATINCKSSQSLLNSANQKNYLAWYQQKPGQPPKLLIYFASTRESGVPDRFSGSGSGTDFTLTISSLQAEDVAVYYCQSHYPYPYTFGGGTKVEIK
notes: IgG4 S241P, kappa
B7: He17/L6 (antibody, IgG4, V domains shown)
VH: EVQLLESGGGLVQPGGSLRLSCAASGFSFSDYYLYWVRQAPGKGLEWVATISVGGGQTSYADSVKGRFTISRDNSKNTLYLQMNSLRAEDTAMYYCTRARTYGPAWFAYWGQGTLVTVSS
VL: DIVMTQSPDSLAVSLGERATINCKSSQSLLNSANQKNYLAWYQQKPGQPPKLLIYFASTRESGVPDRFSGSGSGTDFTLTISSLQAEDVAVYYCQSHYPFSFTFGGGTKVEIK
notes: IgG4 S241P, kappa
B8: He17/L2 (antibody, IgG4, V domains shown)
VH: EVQLLESGGGLVQPGGSLRLSCAASGFSFSDYYLYWVRQAPGKGLEWVATISVGGGQTSYADSVKGRFTISRDNSKNTLYLQMNSLRAEDTAMYYCTRARTYGPAWFAYWGQGTLVTVSS
VL: DIVMTQSPDSLAVSLGERATINCKSSQSLLNSANQKNYLAWYQQKPGQPPKLLIYFASTRESGVPDRFSGSGSGTDFTLTISSLQAEDVAVYYCQSHYPFPYTFGGGTKVEIK
notes: IgG4 S241P, kappa
B9: He17/L20 (antibody, IgG4, V domains shown)
VH: EVQLLESGGGLVQPGGSLRLSCAASGFSFSDYYLYWVRQAPGKGLEWVATISVGGGQTSYADSVKGRFTISRDNSKNTLYLQMNSLRAEDTAMYYCTRARTYGPAWFAYWGQGTLVTVSS
VL: DIVMTQSPDSLAVSLGERATINCKSSQSLLNSANQKNYLAWYQQKPGQPPKLLIYFASTRESGVPDRFSGSGSGTDFTLTISSLQAEDVAVYYCQSHFPYPLTFGGGTKVEIK
notes: IgG4 S241P, kappa
B10: Parent VH/L3 (antibody, IgG4, V domains shown)
VH: EVQLLESGGGLVQPGGSLRLSCAASGFSFSDYYLYWVRQAPGKGLEWVATISVGGGQTSYADSVKGRFTISRDNSKNTLYLQMNSLRAEDTAMYYCTRGLYYGPAWFAYWGQGTLVTVSS
VL: DIVMTQSPDSLAVSLGERATINCKSSQSLLNSANQKNYLAWYQQKPGQPPKLLIYFASTRESGVPDRFSGSGSGTDFTLTISSLQAEDVAVYYCQSHFPFPFTFGGGTKVEIK
notes: IgG4 S241P, kappa
B11: He17/L19 (antibody, IgG4, V domains shown)
VH: EVQLLESGGGLVQPGGSLRLSCAASGFSFSDYYLYWVRQAPGKGLEWVATISVGGGQTSYADSVKGRFTISRDNSKNTLYLQMNSLRAEDTAMYYCTRARTYGPAWFAYWGQGTLVTVSS
VL: DIVMTQSPDSLAVSLGERATINCKSSQSLLNSANQKNYLAWYQQKPGQPPKLLIYFASTRESGVPDRFSGSGSGTDFTLTISSLQAEDVAVYYCQSHIYPNFTFGGGTKVEIK
notes: IgG4 S241P, kappa
B12: He14/Parent VL (antibody, IgG4, V domains shown)
VH: EVQLLESGGGLVQPGGSLRLSCAASGFSFSDYYLYWVRQAPGKGLEWVATISVGGGQTSYADSVKGRFTISRDNSKNTLYLQMNSLRAEDTAMYYCTRGLYYGPSWVAYWGQGTLVTVSS
VL: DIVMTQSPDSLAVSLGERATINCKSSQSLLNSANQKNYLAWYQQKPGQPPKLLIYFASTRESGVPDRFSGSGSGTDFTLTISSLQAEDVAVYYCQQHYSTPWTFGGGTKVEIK
notes: IgG4 S241P, kappa
B13: He17/L18 (antibody, IgG4, V domains shown)
VH: EVQLLESGGGLVQPGGSLRLSCAASGFSFSDYYLYWVRQAPGKGLEWVATISVGGGQTSYADSVKGRFTISRDNSKNTLYLQMNSLRAEDTAMYYCTRARTYGPAWFAYWGQGTLVTVSS
VL: DIVMTQSPDSLAVSLGERATINCKSSQSLLNSANQKNYLAWYQQKPGQPPKLLIYFASTRESGVPDRFSGSGSGTDFTLTISSLQAEDVAVYYCQSHFPYPFTFGGGTKVEIK
notes: IgG4 S241P, kappa
B14: Parent VH/L2 (antibody, IgG4, V domains shown)
VH: EVQLLESGGGLVQPGGSLRLSCAASGFSFSDYYLYWVRQAPGKGLEWVATISVGGGQTSYADSVKGRFTISRDNSKNTLYLQMNSLRAEDTAMYYCTRGLYYGPAWFAYWGQGTLVTVSS
VL: DIVMTQSPDSLAVSLGERATINCKSSQSLLNSANQKNYLAWYQQKPGQPPKLLIYFASTRESGVPDRFSGSGSGTDFTLTISSLQAEDVAVYYCQSHYPFPYTFGGGTKVEIK
notes: IgG4 S241P, kappa
B15: He14/L19 (antibody, IgG4, V domains shown)
VH: EVQLLESGGGLVQPGGSLRLSCAASGFSFSDYYLYWVRQAPGKGLEWVATISVGGGQTSYADSVKGRFTISRDNSKNTLYLQMNSLRAEDTAMYYCTRGLYYGPSWVAYWGQGTLVTVSS
VL: DIVMTQSPDSLAVSLGERATINCKSSQSLLNSANQKNYLAWYQQKPGQPPKLLIYFASTRESGVPDRFSGSGSGTDFTLTISSLQAEDVAVYYCQSHIYPNFTFGGGTKVEIK
notes: IgG4 S241P, kappa
B16: He17/L5 (antibody, IgG4, V domains shown)
VH: EVQLLESGGGLVQPGGSLRLSCAASGFSFSDYYLYWVRQAPGKGLEWVATISVGGGQTSYADSVKGRFTISRDNSKNTLYLQMNSLRAEDTAMYYCTRARTYGPAWFAYWGQGTLVTVSS
VL: DIVMTQSPDSLAVSLGERATINCKSSQSLLNSANQKNYLAWYQQKPGQPPKLLIYFASTRESGVPDRFSGSGSGTDFTLTISSLQAEDVAVYYCQSHYPFAFTFGGGTKVEIK
notes: IgG4 S241P, kappa
B17: He14/L20 (antibody, IgG4, V domains shown)
VH: EVQLLESGGGLVQPGGSLRLSCAASGFSFSDYYLYWVRQAPGKGLEWVATISVGGGQTSYADSVKGRFTISRDNSKNTLYLQMNSLRAEDTAMYYCTRGLYYGPSWVAYWGQGTLVTVSS
VL: DIVMTQSPDSLAVSLGERATINCKSSQSLLNSANQKNYLAWYQQKPGQPPKLLIYFASTRESGVPDRFSGSGSGTDFTLTISSLQAEDVAVYYCQSHFPYPLTFGGGTKVEIK
notes: IgG4 S241P, kappa
B18: He17/L3 (antibody, IgG4, V domains shown)
VH: EVQLLESGGGLVQPGGSLRLSCAASGFSFSDYYLYWVRQAPGKGLEWVATISVGGGQTSYADSVKGRFTISRDNSKNTLYLQMNSLRAEDTAMYYCTRARTYGPAWFAYWGQGTLVTVSS
VL: DIVMTQSPDSLAVSLGERATINCKSSQSLLNSANQKNYLAWYQQKPGQPPKLLIYFASTRESGVPDRFSGSGSGTDFTLTISSLQAEDVAVYYCQSHFPFPFTFGGGTKVEIK
notes: IgG4 S241P, kappa

The target of this assay is T1, CEACAM1 (Sino Biological). In words: SPR single-cycle. In short, it runs like this: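 Humanized affinity-matured IgGs from crude supernatants captured on Protein A to ~100 RU, with CEACAM1 analyte injected at 25–100 nM (three-point, two-fold) in HBS-P+ without regeneration. 200 s association per injection, 300 s single dissociation; reference-channel and blank subtracted.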
As for B1, the Kd (in general, the constant that tells how readily two partners part at equilibrium) is 97 nM and the “fold better than Parent (KD)” value came out at 1.64 fold.

B2: the Kd stood at 128 nM and the “fold better than Parent (KD)” value is 1.24 fold.

Take B3: binding was characterised by a dissociation constant (Kd) of 165 nM and the “fold better than Parent (KD)” value came to 0.96 fold.

In the case of B4, the Kd turned out to be 258 nM and the “fold better than Parent (KD)” value came to 2.14 fold.

B5: the Kd is 91 nM and the “fold better than Parent (KD)” value is 1.75 fold.

Take B6: the affinity, expressed as Kd, was 104 nM and the “fold better than Parent (KD)” value was found to be 1.53 fold.

As to B7, the Kd amounted to 79 nM and the “fold better than Parent (KD)” value is 2.01 fold.

Take B8: the affinity, expressed as Kd, was 82 nM and the “fold better than Parent (KD)” value was determined as 1.95 fold.

B9: binding was put at a Kd of 99 nM and the “fold better than Parent (KD)” value was found to be 1.61 fold.

For B10, the dissociation constant (Kd) turned out to be 63 nM and the “fold better than Parent (KD)” value is 2.53 fold.

Regarding B11, binding was put at a Kd of 135 nM and the “fold better than Parent (KD)” value turned out to be 1.18 fold.

As to B12, the Kd was found to be 88 nM and the “fold better than Parent (KD)” value came to 1.8 fold.

As for B13, binding was characterised by a dissociation constant (Kd) of 98 nM and the “fold better than Parent (KD)” value was 1.62 fold.

For the molecule B14, the Kd is 70 nM and the “fold better than Parent (KD)” value came out at 2.26 fold.

With B15, the Kd turned out to be 87 nM and the “fold better than Parent (KD)” value turned out to be 1.83 fold.

In the case of B16, the equilibrium dissociation constant (Kd) is 81 nM and the “fold better than Parent (KD)” value came to 1.97 fold.

As to B17, binding was put at a Kd of 114 nM and the “fold better than Parent (KD)” value was found to be 1.39 fold.

In the case of B18, the Kd turned out to be 95 nM and the “fold better than Parent (KD)” value stood at 1.68 fold.

Source of the values: patent publication US20250388666A1 (BRIGHAM AND WOMEN S HOSPITAL, published 2025).
